Data as given in patent US20240116985A1, “STAPLED PEPTIDES AND METHODS THEREOF” (priority 2020, published 2024).
Starred links: 1 amine or outer side, 2 acyl side, 3 side chain; linkers in the order of their positions; H or OH if unused. Positions of bridges follow the written chain, without caps; N, C: chain ends. Non-standard residues stand in square brackets, D forms with d. Primed or numbered codes have the meaning given here. *: point of attachment. PyrS2″ = (S)-3-amino-1-((pent-4-en-1-yloxy)carbonyl)pyrrolidine-3-carboxylic acid (stapling residue), C=CCCCOC(=O)N1CC[C@@](N[*:1])(C(=O)[*:2])C1; B5(4) = 2,2-bis(4-pentenyl)glycine = 2-amino-2-(pent-4-en-1-yl)hept-6-enoic acid (stitching residue), C=CCCCC(CCCC=C)(N[*:1])C(=O)[*:2]; B5(5) = 2,2-bis(4-pentenyl)glycine, 2-amino-2-(pent-4-en-1-yl)hept-6-enoic acid (stitching residue), C=CCCCC(CCCC=C)(N[*:1])C(=O)[*:2]; PyrS2 = (S)-3-amino-1-((pent-4-en-1-yloxy)carbonyl)pyrrolidine-3-carboxylic acid, C=CCCCOC(=O)N1CC[C@@](N[*:1])(C(=O)[*:2])C1; B5(7) = 2-amino-2-(pent-4-en-1-yl)hept-6-enoic acid, two olefinic side chains, C=CCCCC(CCCC=C)(N[*:1])C(=O)[*:2]; B5(3) = 2,2-bis(4-pentenyl)glycine (stitching residue), C=CCCCC(CCCC=C)(N[*:1])C(=O)[*:2]; R6 = (R)-2-amino-2-methyloct-7-enoic acid, C=CCCCC[C@@](C)(N[*:1])C(=O)[*:2]; R4 = (R)-2-amino-2-methylhex-5-enoic acid, C=CCC[C@@](C)(N[*:1])C(=O)[*:2]; Phe(4-COOH) = N[C@@H](Cc1ccc(C(=O)O)cc1)C(=O)O; Phe(2-Cl) = N[C@@H](Cc1ccccc1Cl)C(=O)O; dαMeGly(allyl) = C=CC[C@@](C)(N)C(=O)O; Bta = N[C@@H](Cc1csc2ccccc12)C(=O)O; Lys(iPr) = CC(C)NCCCC[C@H](N)C(=O)O; αAllylPro = C=CC[C@@]1(C(=O)O)CCCN1; tBuAla = CC(C)(C)C[C@H](N)C(=O)O; 2Thi = N[C@@H](Cc1cccs1)C(=O)O; 3Thi = N[C@@H](Cc1ccsc1)C(=O)O; Cha = N[C@@H](CC1CCCCC1)C(=O)O; Cit = NC(=O)NCCC[C@H](N)C(=O)O; S8 = C=CCCCCCC[C@](C)(N)C(=O)O; Leu(ol) = CC(C)C[C@H](N)CO; Dab = NCC[C@H](N)C(=O)O; Abu = CC[C@H](N)C(=O)O; Dap = NC[C@H](N)C(=O)O; Alaol = C[C@@H](CO)N*; Acryloyl = C=CC(=O)*

How the values were obtained:
[1] = target: full-length beta-Catenin (Uniprot ID P35222) (Homo sapiens (Human)) (UniProt P35222); assay: fluorescence polarization competition; 10 nM full-length beta-catenin + 10 nM 5FAM-TCF4(10-53) probe
Target sequence in this assay (P35222 whole entry): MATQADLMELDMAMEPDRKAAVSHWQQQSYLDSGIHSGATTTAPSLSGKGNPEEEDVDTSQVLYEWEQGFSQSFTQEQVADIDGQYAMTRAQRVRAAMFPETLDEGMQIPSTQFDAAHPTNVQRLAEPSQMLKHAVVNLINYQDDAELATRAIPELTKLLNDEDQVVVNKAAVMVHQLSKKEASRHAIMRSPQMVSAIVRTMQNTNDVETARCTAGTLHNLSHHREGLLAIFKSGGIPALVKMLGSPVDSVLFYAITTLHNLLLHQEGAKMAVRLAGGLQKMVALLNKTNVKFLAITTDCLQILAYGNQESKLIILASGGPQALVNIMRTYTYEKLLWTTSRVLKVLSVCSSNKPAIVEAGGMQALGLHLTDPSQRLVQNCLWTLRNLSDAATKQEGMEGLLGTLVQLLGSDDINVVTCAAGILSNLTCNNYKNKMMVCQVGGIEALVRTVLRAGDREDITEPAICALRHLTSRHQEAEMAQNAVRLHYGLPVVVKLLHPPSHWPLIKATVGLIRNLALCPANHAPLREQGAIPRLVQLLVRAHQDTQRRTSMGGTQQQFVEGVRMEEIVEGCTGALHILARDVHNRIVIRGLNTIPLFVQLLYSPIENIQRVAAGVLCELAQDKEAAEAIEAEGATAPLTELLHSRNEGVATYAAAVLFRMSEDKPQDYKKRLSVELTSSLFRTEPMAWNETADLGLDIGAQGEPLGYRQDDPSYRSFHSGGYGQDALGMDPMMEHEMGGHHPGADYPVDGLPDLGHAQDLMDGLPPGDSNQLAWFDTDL

[2] = target: full-length beta-Catenin (Uniprot ID P35222) (Homo sapiens (Human)) (UniProt P35222); assay: fluorescence polarization competition; full-length beta-catenin, competitor 5FAM-TCF4(10-53) probe
[3] = target: full-length beta-Catenin (Uniprot ID P35222) (Homo sapiens (Human)) (UniProt P35222); assay: fluorescence polarization competition; peptide titrated against 10 nM full-length beta-catenin + 10 nM 5FAM-TCF4(10-53)
Target sequence in this assay (P35222 2-781 limits assumed): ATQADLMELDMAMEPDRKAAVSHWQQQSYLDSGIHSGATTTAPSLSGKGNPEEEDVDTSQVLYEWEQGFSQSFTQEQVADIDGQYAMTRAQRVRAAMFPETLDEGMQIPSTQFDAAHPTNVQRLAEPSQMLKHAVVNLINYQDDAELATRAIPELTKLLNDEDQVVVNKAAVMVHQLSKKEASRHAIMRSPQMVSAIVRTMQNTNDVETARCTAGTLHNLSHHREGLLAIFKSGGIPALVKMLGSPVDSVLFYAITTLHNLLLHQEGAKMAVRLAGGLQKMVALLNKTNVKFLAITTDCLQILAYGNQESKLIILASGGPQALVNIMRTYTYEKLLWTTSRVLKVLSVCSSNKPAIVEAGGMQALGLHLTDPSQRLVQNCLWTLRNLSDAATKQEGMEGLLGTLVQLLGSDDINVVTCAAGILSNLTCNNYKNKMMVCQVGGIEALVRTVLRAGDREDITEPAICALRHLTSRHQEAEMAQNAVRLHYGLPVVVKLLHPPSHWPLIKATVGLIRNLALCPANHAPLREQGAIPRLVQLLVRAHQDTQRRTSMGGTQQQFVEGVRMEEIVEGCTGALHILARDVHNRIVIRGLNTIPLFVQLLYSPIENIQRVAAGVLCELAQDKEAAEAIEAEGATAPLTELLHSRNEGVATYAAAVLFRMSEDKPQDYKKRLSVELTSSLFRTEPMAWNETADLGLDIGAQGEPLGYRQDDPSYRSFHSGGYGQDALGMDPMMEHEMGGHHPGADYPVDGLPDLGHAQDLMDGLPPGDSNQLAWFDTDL

[4] = target: full-length beta-Catenin (Uniprot ID P35222) (Homo sapiens (Human)) (UniProt P35222); assay: fluorescence polarization competition; displacement of 5FAM-TCF4(10-53) from full-length beta-catenin
Target sequence in this assay (P35222 whole entry): as the sequence (P35222 whole entry) above

[5] = target: full-length beta-Catenin (Uniprot ID P35222) (Homo sapiens (Human)) (UniProt P35222); assay: fluorescence polarization competition; full-length beta-catenin with 5FAM-TCF4(10-53) probe as competitor

Row | IC50 [1] [nM] | EC50 [2] [nM] | IC50 [5] [nM] | Binder | further results
1 | 186 |  |  | Ac-PD[tBuAla][R4]DDAAFL[PyrS2][3Thi][Bta]Q-NH2 (staple 4-11) [I-1989] | 
2 |  | 5 |  | Ac-[αAllylPro]D[tBuAla][B5(3)]DDAAFN[PyrS2″][Phe(2-Cl)][Bta]-Alaol (staple 1-4, 4-11) [I-1081] | IC50 [3]: 5 nM
3 | 227 |  |  | Ac-[αAllylPro]D[tBuAla][B5(4)]NT[Lys(iPr)]AFN[PyrS2″][3Thi][Bta]Q-NH2 (staple 1-4, 4-11; not fully specified; printed as Ac-PL3-Asp-Npg-B5-Asn-Thr-iPrLys-Ala-Phe-Asn-PyrS2-3Thi-BztA-Gln-NH2) [I-2004] | 
4 | 397 |  |  | Ac-PD[tBuAla][R6]DDAAFL[PyrS2][3Thi][Bta]Q-NH2 (staple 4-11; not fully specified; printed as Ac-Pro-Asp-Npg-R6-Asp-Asp-Ala-Ala-Phe-Leu-PyrS2-3Thi-BztA-Gln-NH2; also: staple -CH=CH- reduced to -CH2-CH2-) [I-1991] | 
5 |  |  | 43 | Ac-[αAllylPro]D[Abu][B5(4)]DEAAFN[S8]F[Bta]Q-NH2 (staple 1-4, 4-11) [I-474] | EC50 [4]: 43 nM
6 |  | 14 | 14 | Ac-[αAllylPro]D[tBuAla][B5(7)]DDAAFQ[PyrS2][3Thi][Bta]Q-NH2 (staple 1-4, 4-11) [I-764] | 
7 | 285 |  |  | Ac-[αAllylPro]D[tBuAla][B5(4)]NTA[Lys(iPr)]FN[PyrS2″][3Thi][Bta]Q-NH2 (staple 1-4, 4-11) [I-2006] | 
8 |  | 253 | 253 | Ac-[αAllylPro]DI[B5(5)]D[Phe(4-COOH)]AAFQ[S8]F[Bta]Q-NH2 (staple 1-4, 4-11) [I-607] | 
9 |  | 498 |  | Ac-[αAllylPro]D[tBuAla][B5(3)]DEAAFL[PyrS2″]F[Bta]Q-NH2 (staple 1-4, 4-11; also: staple stereoisomer: later eluting HPLC peak) [I-1074] | IC50 [3]: 498 nM
10 | 536 |  |  | Ac-PD[tBuAla][R4]DDAAFL[PyrS2][3Thi][Bta]Q-NH2 (staple 4-11; not fully specified; printed as Ac-Pro-Asp-Npg-R4-Asp-Asp-Ala-Ala-Phe-Leu-PyrS2-3Thi-BztA-Gln-NH2; also: staple -CH=CH- reduced to -CH2-CH2-) [I-1992] | 
11 |  | 632 | 632 | Ac-[αAllylPro]DI[B5(5)]D[Cit]AAFQ[S8]F[Bta]Q-NH2 (staple 1-4, 4-11) [I-605] | 
12 |  | 289 | 289 | Ac-[αAllylPro]DI[B5(5)]D[Phe(4-COOH)]AAFQ[S8]F[Bta]Q-NH2 (staple 1-4, 4-11; also: staple isomer, earlier eluting HPLC peak) [I-606] | 
13 |  |  | 121 | Ac-[αAllylPro]D[Abu][B5(4)]DEAAFN[S8]F[Bta]Q-NH2 (staple 1-4, 4-11) [I-473] | EC50 [4]: 121 nM
14 |  |  | 5000 | Ac-[αAllylPro]DI[B5(4)]DDAAFQ[S8][Dap](Acryloyl)[Bta]Q-NH2 (staple 1-4, 4-11; also: earlier eluting HPLC peak (staple isomer)) [I-483] | EC50 [4]: 5000 nM
15 | 585 |  |  | Ac-PD[tBuAla][dαMeGly(allyl)]DDAAFL[PyrS2][3Thi][Bta]Q-NH2 (staple 4-11) [I-1990] | 
16 | 612 |  |  | Ac-[αAllylPro]DA[B5(4)]NTAAFN[PyrS2″][3Thi][Bta]Q-NH2 (staple 1-4, 4-11; not fully specified; printed as Ac-PL3-Asp-Ala-B5-Asn-Thr-Ala-Ala-Phe-Asn-PyrS2-3Thi-BztA-Gln-NH2) [I-2002] | 

Row | IC50 [1] [nM] | EC50 [2] [nM] | IC50 [5] [nM] | Binder | further results
17 |  | 692 | 692 | Ac-[αAllylPro]DI[B5(5)]D[Cit]AAFQ[S8]F[Bta]Q-NH2 (staple 1-4, 4-11; also: staple isomer, earlier eluting HPLC peak) [I-604] | 
18 |  |  | 5000 | Ac-[αAllylPro]DI[B5(4)]DDAAFQ[S8][Dap](Acryloyl)[Bta]Q-NH2 (staple 1-4, 4-11; also: later eluting HPLC peak (staple isomer)) [I-484] | EC50 [4]: 5000 nM
19 |  | 6 |  | Ac-[αAllylPro]D[tBuAla][B5(4)]DDAAFN[PyrS2″][Phe(2-Cl)][Bta][Leu(ol)] (staple 1-4, 4-11) [I-1080] | IC50 [3]: 6 nM
20 |  |  | 118 | Ac-[αAllylPro]DI[B5(4)]DDAAFQ[S8]F[Bta][Dab]-NH2 (staple 1-4, 4-11) [I-482] | EC50 [4]: 118 nM
21 |  |  | 43 | Ac-[αAllylPro]DI[B5(4)]DEAA[2Thi]Q[S8]F[Bta]H-NH2 (staple 1-4, 4-11) [I-488] | EC50 [4]: 43 nM
22 |  | 352 |  | Ac-[αAllylPro]D[Cha][B5(4)]DEAAFL[PyrS2″][Phe(2-Cl)][Bta]Q-NH2 (staple 1-4, 4-11; also: later-eluting staple isomer composition) [I-1078] | IC50 [3]: 352 nM
23 |  | 5 | 5 | Ac-[αAllylPro]D[tBuAla][B5(7)]DDAAFQ[PyrS2][3Thi][Bta]Q-NH2 (staple 1-4, 4-11) [I-763] | 
24 | 1020 |  |  | Ac-[αAllylPro]DA[B5(4)]NTAAFN[PyrS2″][3Thi][Bta]Q-NH2 (staple 1-4, 4-11; not fully specified; printed as Ac-PL3-Asp-Ala-B5-Asn-Thr-Ala-Ala-Phe-Asn-PyrS2-3Thi-BztA-Gln-NH2) [I-2003] | 
25 |  | 5 | 5 | Ac-[αAllylPro]D[tBuAla][B5(7)]DDAAFQ[PyrS2][3Thi][Bta]H-NH2 (staple 1-4, 4-11) [I-771] | 
26 | 728 |  |  | Ac-PD[tBuAla][dαMeGly(allyl)]DDAAFL[PyrS2][3Thi][Bta]Q-NH2 (staple 4-11; not fully specified; printed as Ac-Pro-Asp-Npg-R3-Asp-Asp-Ala-Ala-Phe-Leu-PyrS2-3Thi-BztA-Gln-NH2; also: staple -CH=CH- reduced to -CH2-CH2-) [I-1993] | 
27 |  |  | 147 | Ac-[αAllylPro]DA[B5(4)]DEAA[2Thi]Q[S8]F[Bta]Q-NH2 (staple 1-4, 4-11; also: earlier eluting HPLC peak (staple isomer)) [I-486] | EC50 [4]: 147 nM
28 |  | 324 |  | Ac-[αAllylPro]D[Cha][B5(4)]DEAAFL[PyrS2″][Phe(2-Cl)][Bta]Q-NH2 (staple 1-4, 4-11; also: earlier-eluting staple isomer composition) [I-1077] | IC50 [3]: 324 nM
29 | 312 |  |  | Ac-PD[tBuAla][R6]DDAAFL[PyrS2][3Thi][Bta]Q-NH2 (staple 4-11) [I-1988] | 
30 |  | 7 | 7 | Ac-[αAllylPro]D[tBuAla][B5(7)]DDAAFQ[PyrS2][3Thi][Bta]H-NH2 (staple 1-4, 4-11) [I-772] | 
31 |  |  | 45 | Ac-[αAllylPro]DA[B5(4)]DEAA[2Thi]Q[S8]F[Bta]Q-NH2 (staple 1-4, 4-11; also: later eluting HPLC peak (staple isomer)) [I-487] | EC50 [4]: 45 nM
32 | 357 |  |  | Ac-[αAllylPro]D[tBuAla][B5(4)]NT[Lys(iPr)]AFN[PyrS2″][3Thi][Bta]Q-NH2 (staple 1-4, 4-11; not fully specified; printed as Ac-PL3-Asp-Npg-B5-Asn-Thr-iPrLys-Ala-Phe-Asn-PyrS2-3Thi-BztA-Gln-NH2) [I-2005] | 
